Data on eleven molecules can be found in patent US20210340238A1, “TGFß1 INHIBITORS AND USE THEREOF” (Scholar Rock, Inc., priority 2018, published 2021).

Assay [1] deals with Matrix-associated proTGFβ1 (hLTBP1-proTGFβ1 and hLTBP3-proTGFβ1 complexes). The assay can be described thus: MSD-SET; cell average KD over ECM average KD.
Assay [2] shares this target. The assay can be described thus: Octet (BLI); IgG1 from yeast; mean of hLTBP1 and hLTBP3. A general note: Biolayer interferometry detects binding as a change in optical thickness at a sensor tip.
For assay [3] the target is unchanged. The assay can be described thus: Octet (BLI); cell average KD over ECM average KD.
The target is the same in assay [4]. The assay can be described thus: MSD-SET; IgG4 from mammalian cells; mean of hLTBP1 and hLTBP3.
The target in assay [5] is Cell-associated proTGFβ1 (hGARP-proTGFβ1 and hLRRC33-proTGFβ1 complexes). The assay can be described thus: Octet (BLI); IgG1 from yeast; mean of hGARP and hLRRC33.
The target is the same in assay [6]. The assay can be described thus: MSD-SET; IgG4 from mammalian cells; mean of hGARP and hLRRC33.

B1: Ab19 (antibody, V domains shown)
VH: QVQLVESGGGVVQPGRSLRLSCAASGFTFSSFAMTWVRQAPGKGLEWVSAISGSGAATYFADSVKGRFTISRDNSKNTLYLQMNSLRAEDTAVYYCARVSSGHWDFDEWGQGTLVTVSS
VL: DIQLTQSPSSLSASVGDRVTITCRASQSISSYLNWYQQKPGKAPKLLIYAASNLQSGVPSRFSGSGSGTDFTLTISSLQPEDFATYYCQQTYTVPLTFGGGTKVEIK
B1: the G/D (fold bias) in assay [1] was 1.68 fold; in assay [3], 34.5 fold. For the same molecule, the ECM AVRG (average KD) in assay [2] is 0.172 nM; in assay [4], 2.83 nM. Moreover, the Cell AVRG (average KD) in assay [5] came to 5.95 nM; in assay [6] it was 4.75 nM.

B2: Ab13 (antibody, IgG1, V domains shown)
VH: EVQLLESGGGLVQPGGSLRLSCAASGFTFADYAMTWVRQAPGKGLEWVSAISSFASAIYYADSVKGRFTISRDNSKNTLYLQMNSLRAEDTAVYYCARVSSGHWDFDYWGQGTLVTVSS
VL: DIQMTQSPSSLSASVGDRVTITCRASQSISSYLNWYQQKPGKAPKLLIYAASSLQSGVPSRFSGSGSGTDFTLTISSLQPEDFATYYCQQVYDPPLTFGGGTKVEIK
In turn, B2 had an ECM AVRG (average KD) in assay [2] of 0.263 nM. In assay [3], this molecule returned a G/D (fold bias) of 21.7 fold. In assay [5], this molecule registered a Cell AVRG (average KD) of 5.7 nM.

B3: Ab11 (antibody, V domains shown)
VH: EVQLLESGGGLVQPGGSLRLSCAASGFTFRNYAMSWVRQAPGKGLEWVSSISGSGGATYYADSVKGRFTISRDNSKNTLYLQMNSLRAEDTAVYYCARVSSGHWDFDYWGQGTLVTVSS
VL: DIQLTQSPSSLSASVGDRVTITCRASQSISSYLNWYQQKPGKAPKLLIYAASNLQSGVPSRFSGSGSGTDFTLTISSLQPEDFATYYCQQTYTVPLTFGGGTKVEIK
In the case of B3, the G/D (fold bias) in assay [1] was 3.87 fold; in assay [3], 4.35 fold. The ECM AVRG (average KD) in assay [2] is 0.161 nM; in assay [4], 1.2 nM. In addition, the Cell AVRG (average KD) was 0.699 nM in assay [5] and 4.65 nM in assay [6].

B4: Ab18 (antibody, IgG1, V domains shown)
VH: QVQLVESGGGVVQPGRSLRLSCAASGFTFSDYAMVWVRQAPGKGLEWVSAISGSGAATYFADSVKGRFTISRDNSKNTLYLQMNSLRAEDTAVYYCATVSSGHWDFDYWGQGTLVTVSS
VL: DIQLTQSPSSLSASVGDRVTITCRASQSISSYLNWYQQKPGKAPKLLIYAASNLQSGVPSRFSGSGSGTDFTLTISSLQPEDFATYYCQQTYTVPLTFGGGTKVEIK
In assay [2], B4 gave an ECM AVRG (average KD) of 0.284 nM. The G/D (fold bias) in assay [3] was found to be 22 fold. The molecule further returned a Cell AVRG (average KD) in assay [5] of 6.26 nM.

B5: Ab12 (antibody, V domains shown)
VH: QVQLVESGGGVVQPGRSLRLSCAASGFTFSDYAMVWVRQAPGKGLEWVSAISGSGFTTYYADSVKGRFTISRDNSKNTLYLQMNSLRAEDTAVYYCARVSSGHWDFDYWGQGTLVTVSS
VL: DIQLTQSPSSLSASVGDRVTITCRASQSISSYLNWYQQKPGKAPKLLIYAASNLQSGVPSRFSGSGSGTDFTLTISSLQPEDFATYYCQQTYTVPLTFGGGTKVEIK
Take B5: the G/D (fold bias) in assay [1] was 3.4 fold; in assay [3], 22.9 fold. Further, the ECM AVRG (average KD) in assay [2] was found to be 0.17 nM; in assay [4], 0.72 nM. Further, the results for the Cell AVRG (average KD) in assay [5] and in assay [6] were 3.89 nM and 2.45 nM, respectively.

B6: Ab16 (antibody, IgG1, V domains shown)
VH: EVQLLESGGGLVQPGGSLRLSCAASGFTFSNYAMSWVRQAPGKGLEWVSAISGSGFTTYYADSVKGRFTISRDNSKNTLYLQMNSLRAEDTAVYYCARVSSGHWDFDYWGQGTLVTVSS
VL: DIQLTQSPSSLSASVGDRVTITCRASQSISSYLNWYQQKPGKAPKLLIYAASNLQSGVPSRFSGSGSGTDFTLTISSLQPEDFATYYCQQTYTVPLTFGGGTKVEIK
B6 registered an ECM AVRG (average KD) in assay [2] of 0.157 nM. The G/D (fold bias) in assay [3] came out at 15.3 fold. This molecule also displayed a Cell AVRG (average KD) in assay [5] of 2.4 nM.

B7: Ab17 (antibody, IgG1, V domains shown)
VH: EVQLLESGGGVVQPGGSLRLSCAASGFTFSSFAMTWVRQAPGKGLEWVSAISGSGAATYFADSVKGRFTISRDNSKNTLYLQMNSLRAEDTAVYYCARVSSGHWDFDYWGQGTLVTVSS
VL: DIQLTQSPSSLSASVGDRVTITCRASQSISSYLNWYQQKPGKAPKLLIYAASNLQSGVPSRFSGSGSGTDFTLTISSLQPEDFATYYCQQTYTVPLTFGGGTKVEIK
In turn, B7 had an ECM AVRG (average KD) in assay [2] of 0.191 nM. For the same molecule, the G/D (fold bias) in assay [3] stood at 24.3 fold. Also, the Cell AVRG (average KD) in assay [5] was determined as 4.64 nM.

B8: Ab15 (antibody, IgG1, V domains shown)
VH: EVQLVESGGGVVQPGRSLRLSCAASGFTFSDYAMVWVRQAPGKGLEWVSAISGSGFTTYYADSVKGRFTISRDNSKNTLYLQMNSLRAEDTAVYYCARVSSGHWDFDYWGQGTLVTVSS
VL: DIQLTQSPSSLSASVGDRVTITCRASQSISSYLNWYQQKPGKAPKLLIYAASNLQSGVPSRFSGSGSGTDFTLTISSLQPEDFATYYCQQTYTVPLTFGGGTKVEIK
As to B8, the ECM AVRG (average KD) in assay [2] was determined as 0.159 nM. In addition, the G/D (fold bias) in assay [3] is 24.2 fold. In assay [5], this molecule had a Cell AVRG (average KD) of 3.86 nM.

B9: Ab20 (antibody, V domains shown)
VH: EVQLLESGGGLVQPGGSLRLSCAASGFTFSAYAMTWVRQAPGKGLEWVSAISGSGGVTYYADSVKGRFTISRDNSKNTLYLQMNSLRAEDTAVYYCARVSSGHWDYDYWGQGTLVTVSS
VL: DIQLTQSPSSLSASVGDRVTITCRASQSISSYLNWYQQKPGKAPKLLIYAASNLQSGVPSRFSGSGSGTDFTLTISSLQPEDFATYYCQQTYTVPLTFGGGTKVEIK
As to B9, the G/D (fold bias) in assay [1] stood at 6.75 fold; in assay [3] it was 4.42 fold. Besides, the ECM AVRG (average KD) in assay [2] is 0.162 nM; in assay [4], 0.2 nM. In addition, the Cell AVRG (average KD) in assay [5] amounted to 0.715 nM; in assay [6], 1.35 nM.

B10: Ab14 (antibody, IgG1, V domains shown)
VH: EVQLLESGGGLVQPGGSLRLSCAASGFTFSAYAMTWVRQAPGKGLEWVSAISGTGGSTYYADSVKGRFTISRDNSKNTLYLQMNSLRAEDTAVYYCARVSSGHWDFDYWGQGTLVTVSS
VL: DIQMTQSPSSLSASVGDRVTITCRASQSISSYLNWYQQKPGKAPKLLIYAASSLQSGVPSRFSGSGSGTDFTLTISSLQPEDFATYYCQQVYDPPLTFGGGTKVEIK
B10 yielded an ECM AVRG (average KD) in assay [2] of 0.341 nM. For the same molecule, in assay [3], the G/D (fold bias) worked out at 17.4 fold. Moreover, in assay [5], the Cell AVRG (average KD) was 5.92 nM.

B11: Ab2 (antibody, V domains shown)
VH: EVQLLESGGGLVQPGGSLRLSCAASGFTFADYAMTWVRQAPGKGLEWVSAISGSGAATYFADSVKGRFTISRDNSKNTLYLQMNSLRAEDTAVYYCARVSSGHWDFDYWGQGTLVTVSS
VL: DIQLTQSPSSLSASVGDRVTITCRASQSISSYLNWYQQKPGKAPKLLIYAASNLQSGVPSRFSGSGSGTDFTLTISSLQPEDFATYYCQQTYTVPLTFGGGTKVEIK
With B11, the ECM AVRG (average KD) worked out at 0.157 nM in assay [2] and 0.266 nM in assay [4]. Also, the Cell AVRG (average KD) in assay [5] was found to be 0.643 nM; in assay [6], 2.3 nM.
